Assay results from the supplement of paper PMC6757056.
± gives the standard deviation of the averaged measurements.

B1: library; a variant is named by its letters at N, in order (parent)
chain: GCUGUCACCGGUGCUUGGUACGUUAUAUUCAGCCGGUCUGAUGAGUCUNNNNNNAGACGAAACAGC

Tests used:
[1] = variants of: B1; assay: FACS-Seq fitted mean relative fluorescence mCherry/BFP without ligand (log10 relative fluorescence); HEK293T overexpressing SLC46A1; higher = higher reporter protein expression; settings: without (6R,S)-folinic acid; ligand present: no
Description: (§1)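 Hammerhead (sTRSV) ribozyme switch libraries with a ligand aptamer grafted on stem I and a randomized N4-6 loop II, cloned into the 3' UTR of mCherry and transiently transfected into HEK293T cells; RNA-Seq 72 h post transfection with ligand added 1 h before transfection; RNA read count / plasmid DNA read count normalized to the non-cleaving sTRSVctl (x100), log10; sequences with >100 DNA reads. FACS-Seq: lentiviral library sorted into 6 bins after 48 h ligand, log-normal fit mean of mCherry/BFP scaled to controls. Printed sequences are partial switch sequences.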

[2] = variants of: B1; assay: normalized RNA/DNA level without ligand (relative to sTRSVctl = 100) (log10 (% of sTRSVctl)); HEK293T overexpressing SLC46A1; higher = less ribozyme self-cleavage, higher mRNA level; settings: without (6R,S)-folinic acid; ligand present: no
Description: as §1

[3] = variants of: B1; assay: FACS-Seq fitted mean relative fluorescence mCherry/BFP with ligand (log10 relative fluorescence); HEK293T overexpressing SLC46A1; ligand concentration (+) FACS-Seq: 6 mM; higher = higher reporter protein expression; settings: with (6R,S)-folinic acid; ligand present: yes
Description: as §1

[4] = variants of: B1; assay: normalized RNA/DNA level with ligand (relative to sTRSVctl = 100) (log10 (% of sTRSVctl)); HEK293T overexpressing SLC46A1; ligand concentration (+) RNA-Seq: 6 mM; higher = less ribozyme self-cleavage, higher mRNA level; settings: with (6R,S)-folinic acid; ligand present: yes
Description: as §1

Row | Variant | FACS-Seq fitted mean (log10) [1] | normalized RNA/DNA level without ligand (log10) [2] | FACS-Seq fitted mean (log10) [3] | normalized RNA/DNA level with ligand (log10) [4]
1 | AAAUAU | 0.147 ± 0.058 | 1.949 ± 0.002 | 0.275 ± 0.077 | 2 ± 0.039
2 | AAAUAA | 0.0525 ± 0.017 | 1.94 ± 0.023 | 0.383 ± 0.051 | 1.98 ± 0.038
3 | AAAUAC | 0.31 ± 0.028 | 1.988 ± 0.0076 | 0.0315 ± 0.22 | 2 ± 0.03
4 | AAAUAG | -0.0965 ± 0.1 | 1.903 ± 0.006 | -0.332 ± 0.53 | 1.98 ± 0.022
5 | CAACGA | 0.682 ± 0.03 | 2.008 ± 0.0085 | 0.653 ± 0.17 | 2.005 ± 0.018
6 | CACAAA | 0.458 ± 0.03 | 1.981 ± 0.014 | 0.462 ± 0.16 | 1.99 ± 0.033
7 | AAACUG | 0.318 ± 0.15 | 1.933 ± 0.0021 | 0.151 ± 0.091 | 2 ± 0.037
8 | UACAAG | 0.55 ± 0.1 | 1.74 ± 0.032 | 0.813 ± 0.031 | 1.94 ± 0.032
9 | UACAAU | 0.467 ± 0.071 | 1.95 ± 0.02 | 0.559 ± 0.071 | 2 ± 0.026
10 | UACAAA | 0.165 ± 0.11 | 1.9485 ± 0.00073 | 0.179 ± 0.031 | 1.99 ± 0.019
11 | CAAACC | 0.546 ± 0.013 | 2.024 ± 0.0088 | 0.377 ± 0.2 | 2.02 ± 0.038
12 | CAAACU | 0.433 ± 0.064 | 2.01 ± 0.027 | 0.667 ± 0.16 | 2.01 ± 0.029
13 | AACAAC | -0.0136 ± 0.067 | 2.028 ± 0.006 | -0.491 ± 0.14 | 2.02 ± 0.024
14 | AACAAG | 0.152 ± 0.031 | 1.923 ± 0.0084 | 0.113 ± 0.2 | 2.02 ± 0.036
15 | AACAAA | 0.414 ± 0.011 | 1.967 ± 0.017 | 0.365 ± 0.15 | 1.99 ± 0.021
16 | AACAAU | 0.338 ± 0.22 | 1.935 ± 0.0082 | 0.122 ± 0.3 | 1.97 ± 0.039
17 | AAAGUG | -0.0552 ± 0.019 | 1.675 ± 0.0049 | 0.25 ± 0.14 | 1.95 ± 0.031
18 | AAAGUC | 0.0964 ± 0.057 | 2.066 ± 0.014 | 0.235 ± 0.08 | 2.03 ± 0.047

Row | Variant | FACS-Seq fitted mean (log10) [1] | normalized RNA/DNA level without ligand (log10) [2] | FACS-Seq fitted mean (log10) [3] | normalized RNA/DNA level with ligand (log10) [4]
19 | UAACCA | 0.441 ± 0.11 | 2.007 ± 0.0037 | 0.274 ± 0.073 | 1.98 ± 0.0045
20 | UAACCG | 0.215 ± 0.047 | 1.8952 ± 0.00059 | 0.522 ± 0.21 | 2.01 ± 0.028
21 | CAAUAA | 0.248 ± 0.034 | 1.934 ± 0.017 | 0.463 ± 0.091 | 1.97 ± 0.031
22 | CAAUAG | 0.376 ± 0.018 | 1.942 ± 0.0058 | 0.641 ± 0.16 | 2.011 ± 0.0065
23 | AAAUGC | 0.594 ± 0.028 | 2.03 ± 0.007 | 0.713 ± 0.3 | 2.03 ± 0.033
24 | AAAUGA | 0.485 ± 0.018 | 1.963 ± 0.005 | 0.406 ± 0.022 | 2.04 ± 0.044
25 | AAAUGG | 0.445 ± 0.096 | 1.87 ± 0.0028 | 0.499 ± 0.072 | 2 ± 0.031
26 | UAAACG | 0.324 ± 0.13 | 1.799 ± 0.016 | 0.717 ± 0.1 | 1.95 ± 0.032
27 | GAACGA | 0.313 ± 0.13 | 1.997 ± 0.012 | 0.623 ± 0.36 | 2.031 ± 0.02
28 | GAACGC | 0.22 ± 0.11 | 1.946 ± 0.0053 | 0.118 ± 0.03 | 1.99 ± 0.022
29 | GAACGG | 0.0676 ± 0.01 | 1.94 ± 0.032 | 0.104 ± 0.12 | 2.018 ± 0.019
30 | AAACAA | 0.376 ± 0.066 | 1.971 ± 0.0088 | 0.436 ± 0.009 | 1.99 ± 0.022
31 | AAACAC | 0.222 ± 0.096 | 2.001 ± 0.01 | 0.0733 ± 0.14 | 2.01 ± 0.026
32 | AAACAU | 0.298 ± 0.095 | 1.971 ± 0.0055 | 0.199 ± 0.17 | 2.01 ± 0.045
33 | AAACAG | 0.346 ± 0.021 | 1.925 ± 0.0068 | 0.296 ± 0.11 | 1.99 ± 0.046
34 | CAAGGA | 0.62 ± 0.052 | 1.981 ± 0.019 | 0.722 ± 0.17 | 1.99 ± 0.052
35 | CAAGGG | -0.428 ± 0.17 | 1.88 ± 0.02 | -0.164 ± 0.057 | 1.99 ± 0.013
36 | AAACCA | 0.226 ± 0.23 | 2 ± 0.01 | 0.0655 ± 0.071 | 2 ± 0.03
